Source: PMC10685657

Molecular target: HA-TRIP12
Assay: co-IP (IP-GFP, immunoblot for TRIP12; band intensity printed above lanes)
Conditions: HEK293T cells, harvested for lysis 48 h after transfection; HA-TRIP12 co-transfected

Substance: GFP-EZH2 wildtype (from UniProt Q15910) K634R
- ratio to parent: 0.16
